Laboratory results: the supplement of paper PMC9732359
± gives the uncertainty stated by the source.

Experiment: protein stability index of a GFP-peptide fusion (yeast GPS) (PSI 1-4); higher = more stable; sorted into four equal gates, so the index is relative within each strain
Procedure, shortened: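 The protein stability index combines read frequencies across sorting gates, each weighted by its gate number and then summed. To obtain those frequencies, a pooled yeast library of GFP fusions to tiled 17-residue yeast protein peptides, on a plasmid also expressing Cherry, was grown to mid-log phase in leucine-free medium. The cells were sorted into four equal gates by GFP/Cherry ratio before plasmid amplification by PCR and Illumina sequencing.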

Sequence: LYLQDSNDKFVHVQLLI [SRB8]
- protein stability index (doa10∆): 1.96 ± 0.055
- protein stability index (pdr5∆): 2.06 ± 0.057
- protein stability index (san1∆): 1.93 ± 0.066
- protein stability index (ubr1∆): 2.17 ± 0.042

Sequence: LNRLPAASLGDMVMATV [RPL23A]
- protein stability index (doa10∆): 1.6 ± 0.1
- protein stability index (pdr5∆): 1.78 ± 0.072
- protein stability index (san1∆): 2.52 ± 0.17
- protein stability index (ubr1∆): 2.11 ± 0.057

Sequence: TKEQYAAESKKYRQTKL [RPL5]
- protein stability index (doa10∆): 3.17 ± 0.14
- protein stability index (pdr5∆): 3.28 ± 0.18
- protein stability index (san1∆): 3.37 ± 0.094
- protein stability index (ubr1∆): 3.12 ± 0.1

Sequence: SYEYYNIKHKHTSIRET [SMC2]
- protein stability index (doa10∆): 1.61 ± 0.047
- protein stability index (pdr5∆): 1.83 ± 0.066
- protein stability index (san1∆): 1.67 ± 0.11
- protein stability index (ubr1∆): 1.87 ± 0.049

Sequence: HELSSSHTSLVKIGKFI [SRB8]
- protein stability index (doa10∆): 1.8 ± 0.042
- protein stability index (pdr5∆): 2.61 ± 0.033
- protein stability index (san1∆): 1.84 ± 0.079
- protein stability index (ubr1∆): 1.63 ± 0.052

Sequence: QIVDIRNKRAVQLPILK [YJL039C/NUP192]
- protein stability index (doa10∆): 2.2 ± 0.1
- protein stability index (pdr5∆): 2.04 ± 0.053
- protein stability index (san1∆): 1.43 ± 0.056
- protein stability index (ubr1∆): 1.92 ± 0.058

Sequence: SPFSITFSVYHESTSRT [YMR129W/POM152]
- protein stability index (doa10∆): 2.36 ± 0.11
- protein stability index (pdr5∆): 2.55 ± 0.062
- protein stability index (san1∆): 2.76 ± 0.056
- protein stability index (ubr1∆): 2.33 ± 0.06

Sequence: RSNQYQRGKMHGLKQLR [NUT2]
- protein stability index (doa10∆): 2.67 ± 0.1
- protein stability index (pdr5∆): 2.91 ± 0.078
- protein stability index (san1∆): 1.48 ± 0.28
- protein stability index (ubr1∆): 1.74 ± 0.076

Sequence: EVAKRLVELMFIRSTNS [FAS1]
- protein stability index (doa10∆): 1.79 ± 0.067
- protein stability index (pdr5∆): 2.14 ± 0.069
- protein stability index (san1∆): 2.5 ± 0.085
- protein stability index (ubr1∆): 1.49 ± 0.042

Sequence: NLKFLKNKDSLVSNPHE [SRB4]
- protein stability index (doa10∆): 2.68 ± 0.06
- protein stability index (pdr5∆): 2.51 ± 0.076
- protein stability index (san1∆): 2.49 ± 0.05
- protein stability index (ubr1∆): 2.84 ± 0.049

Sequence: VDDVLETISAIEHPMTS [RPN1]
- protein stability index (doa10∆): 3.15 ± 0.13
- protein stability index (pdr5∆): 3.2 ± 0.091
- protein stability index (san1∆): 2.79 ± 0.16
- protein stability index (ubr1∆): 2.91 ± 0.083

Sequence: NPSNTPDKDYLLSIPIS [FAS1]
- protein stability index (doa10∆): 2.89 ± 0.078
- protein stability index (pdr5∆): 3.1 ± 0.079
- protein stability index (san1∆): 2.88 ± 0.054
- protein stability index (ubr1∆): 2.82 ± 0.066

Sequence: QSLANIQYVTYLLTQQQ [SOH1]
- protein stability index (doa10∆): 2.23 ± 0.048
- protein stability index (pdr5∆): 2.4 ± 0.045
- protein stability index (san1∆): 2.19 ± 0.047
- protein stability index (ubr1∆): 2.41 ± 0.033

Sequence: RWKRFTIGAIFLNHAFD [CDC53]
- protein stability index (doa10∆): 2.54 ± 0.065
- protein stability index (pdr5∆): 2 ± 0.069
- protein stability index (san1∆): 2.18 ± 0.099
- protein stability index (ubr1∆): 1.53 ± 0.048

Sequence: CPLSQQFCGIKERNSLK [BRR2]
- protein stability index (doa10∆): 2.88 ± 0.16
- protein stability index (pdr5∆): 3.14 ± 0.1
- protein stability index (san1∆): 2.71 ± 0.094
- protein stability index (ubr1∆): 3.08 ± 0.076

Sequence: HELREKERISVAAASKI [PRE2]
- protein stability index (doa10∆): 2.67 ± 0.061
- protein stability index (pdr5∆): 2.77 ± 0.049
- protein stability index (san1∆): 2.79 ± 0.062
- protein stability index (ubr1∆): 2.22 ± 0.03

Sequence: KMMSFQANPTEESISKF [RPB5]
- protein stability index (doa10∆): 3.02 ± 0.077
- protein stability index (pdr5∆): 3.17 ± 0.076
- protein stability index (san1∆): 2.4 ± 0.2
- protein stability index (ubr1∆): 3.15 ± 0.12

Sequence: RLGSFTRAKAKVEEMNN [RPL36A]
- protein stability index (pdr5∆): 2.61 ± 0.2
- protein stability index (san1∆): 2.85 ± 0.19
- protein stability index (ubr1∆): 2.87 ± 0.28

Sequence: HEFFIANHDDQDDIDEM [SRP68]
- protein stability index (doa10∆): 3.12 ± 0.056
- protein stability index (pdr5∆): 2.64 ± 0.061
- protein stability index (san1∆): 3.24 ± 0.04
- protein stability index (ubr1∆): 3.23 ± 0.062

Sequence: EKEEEAKEESDDDMGFG [RPP2B]
- protein stability index (doa10∆): 3.05 ± 0.2
- protein stability index (pdr5∆): 3.29 ± 0.14
- protein stability index (san1∆): 2.84 ± 0.15
- protein stability index (ubr1∆): 3.43 ± 0.07

Sequence: NDNDITVKENESDSKLQ [UBP6]
- protein stability index (doa10∆): 3.48 ± 0.12
- protein stability index (pdr5∆): 3.24 ± 0.096
- protein stability index (san1∆): 3.15 ± 0.071
- protein stability index (ubr1∆): 3.35 ± 0.081

Sequence: NVVIDEAVEIPVNSADG [SME1]
- protein stability index (doa10∆): 2.97 ± 0.084
- protein stability index (pdr5∆): 3.35 ± 0.068
- protein stability index (san1∆): 3.24 ± 0.041
- protein stability index (ubr1∆): 2.98 ± 0.045

Sequence: VGSEKVLQDLRLGSKKL [YJL039C/NUP192]
- protein stability index (doa10∆): 3.34 ± 0.13
- protein stability index (san1∆): 3.38 ± 0.13

Sequence: ETVAKSKNAERKWAARA [RPS8A]
- protein stability index (doa10∆): 3.184 ± 0.028
- protein stability index (pdr5∆): 3.362 ± 0.027
- protein stability index (san1∆): 3.196 ± 0.018
- protein stability index (ubr1∆): 3.315 ± 0.021

Sequence: WTRGTGLMSANNIIAEG [FAS2]
- protein stability index (doa10∆): 2.98 ± 0.096
- protein stability index (pdr5∆): 2.85 ± 0.086
- protein stability index (san1∆): 3.06 ± 0.093

Sequence: LSKEVPFSYLIDETMMD [SRB5]
- protein stability index (doa10∆): 2.03 ± 0.12
- protein stability index (pdr5∆): 2.36 ± 0.066
- protein stability index (san1∆): 2.22 ± 0.13
- protein stability index (ubr1∆): 2.55 ± 0.048

Sequence: ERVWNICLYSSFQKNSL [AAR2]
- protein stability index (doa10∆): 1.8 ± 0.059
- protein stability index (pdr5∆): 2.01 ± 0.046
- protein stability index (san1∆): 2.18 ± 0.1
- protein stability index (ubr1∆): 2.02 ± 0.034
